Results on three molecules are retold here after PMC3471918 (PLoS ONE, 2012).

The term stoichiometry N denotes a count of units in the complex or per binding partner.

What all share (experiment): AUC; sedimentation velocity, 4°C, 40,000 rpm, 50 mM Tris pH 7.4, absorbance at 280 nm, c(s,ff0) distributions by SEDFIT corrected to 20,w; monomer, dimer and higher oligomers
The target of data set [1] is cysteine-free rat insulin degrading enzyme (all twelve cysteines converted to serines) (rat) (UniProt P35559).
Data set [2] has as its target rat insulin degrading enzyme C904S (rat) (UniProt P35559).
Data set [3] deals with the molecule itself.

In data set [1], “cysteine-free rat insulin degrading enzyme (all twelve cysteines converted to serines) (from UniProt P35559 1-1019)” returned a fold decrease in dimer content against wild type IDE of 2 fold.

For the molecule “rat insulin degrading enzyme C904S (from UniProt P35559 1-1019)”, in data set [2], the stoichiometry N was 2.

B1: rat insulin degrading enzyme (IDE), wild type (enzyme, UniProt P35559 1-1019, looked up)
chain: MNNPAIQRIEDHIVKSPEDKREYRGLELANGIKVLLISDPTTDKSSAALDVHIGSLSDPPNIPGLSHFCEHMLFLGTKKYPKENEYSQFLSEHAGSSNAFTSGEHTNYYFDVSHEHLEGALDRFAQFFLCPLFDASCKDREVNAVDSEHEKNVMNDAWRLFQLEKATGNPKHPFSKFGTGNKYTLETRPNQEGIDVREELLKFHSTYYSSNLMAICVLGRESLDDLTNLVVKLFSEVENKNVPLPEFPEHPFQEEHLKQLYKIVPIKDIRNLYVTFPIPDLQQYYKSNPGHYLGHLIGHEGPGSLLSELKSKGWVNTLVGGQKEGARGFMFFIINVDLTEEGLLHVEDIILHMFQYIQKLRAEGPQEWVFQECKDLNAVAFRFKDKERPRGYTSKIAGKLHYYPLNGVLTAEYLLEEFRPDLIDMVLDKLRPENVRVAIVSKSFEGKTDRTEQWYGTQYKQEAIPEDVIQKWQNADLNGKFKLPTKNEFIPTNFEILALEKDATPYPALIKDTAMSKLWFKQDDKFFLPKACLNFEFFSPFAYVDPLHCNMAYLYLELLKDSLNEYAYAAELAGLSYDLQNTIYGMYLSVKGYNDKQPILLKKITEKMATFEIDKKRFEIIKEAYMRSLNNFRAEQPHQHAMYYLRLLMTEVAWTKDELKEALDDVTLPRLKAFIPQLLSRLHIEALLHGNITKQAALGVMQMVEDTLIEHAHTKPLLPSQLVRYREVQLPDRGWFVYQRRNEVHNNCGIEIYYQTDMQSTSENMFLELFCQIISEPCFNTLRTKEQLGYIVFSGPRRANGIQGLRFIIQSEKPPHYLESRVEAFLITMEKAIEDMTEEAFQKHIQALAIRRLDKPKKLSAECAKYWGEIISQQYNYDRDNIEVAYLKTLSKDDIIKFYKEMLAVDAPRRHKVSVHVLAREMDSCPVVGEFPSQNDINLSEAPPLPQPEVIHNMTEFKRGLPLFPLVKPHINFMAAKL
notes: Insulin degrading enzyme, rat; EC 3.4.24.56; also called wild type IDE; native enzyme; source: Sf9 insect cells, purified (HIS-select Ni-NTA agarose)
With B1, the “stoichiometry N” value in data set [3] was found to be 2.
